Data taken from paper PMC10123104, “YbiB: a novel interactor of the GTPase ObgE”.

Columns and labels:
YbiB Arg123Glu = target: T1, YbiB Arg123Glu (Escherichia coli BW25113, UniProt P30177 1-320, R123E); assay: EMSA; EMSA: 20 mM HEPES pH 7.5, 150 mM NaCl, 5 mM MgCl2, 2 mM DTT, 5% glycerol, 30 min at 37 C; 6% PAGE in 1x TBE at room temperature; conditions: protein: recombinant; tags: N-terminal His6, thrombin site (pET28a); chain copies: 2; label: 5'-32P; single strand
T1 sequence: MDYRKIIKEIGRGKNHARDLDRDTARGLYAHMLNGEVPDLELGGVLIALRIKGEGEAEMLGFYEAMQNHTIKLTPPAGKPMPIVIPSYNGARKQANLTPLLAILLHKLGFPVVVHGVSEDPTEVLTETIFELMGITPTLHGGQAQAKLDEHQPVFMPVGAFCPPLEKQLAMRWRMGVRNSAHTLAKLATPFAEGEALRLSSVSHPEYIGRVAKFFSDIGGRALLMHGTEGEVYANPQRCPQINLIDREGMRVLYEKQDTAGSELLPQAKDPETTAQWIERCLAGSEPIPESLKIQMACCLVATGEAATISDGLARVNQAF

YbiB Arg92Glu = target: T2, YbiB Arg92Glu (Escherichia coli BW25113, UniProt P30177 1-320, R92E); assay: as above; conditions: protein: recombinant; tags: N-terminal His6, thrombin site (pET28a); chain copies: 2; label: 5'-32P; single strand
T2 sequence: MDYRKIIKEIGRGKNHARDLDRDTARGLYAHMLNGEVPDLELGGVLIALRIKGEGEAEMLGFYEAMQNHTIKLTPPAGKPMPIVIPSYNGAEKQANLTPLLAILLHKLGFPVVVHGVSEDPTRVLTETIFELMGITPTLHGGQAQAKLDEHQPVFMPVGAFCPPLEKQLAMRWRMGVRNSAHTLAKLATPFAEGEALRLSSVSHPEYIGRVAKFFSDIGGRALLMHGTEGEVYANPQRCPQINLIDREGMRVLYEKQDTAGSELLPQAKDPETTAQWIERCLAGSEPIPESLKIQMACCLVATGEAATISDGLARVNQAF

B1: EMSA_probe (58-nt ssDNA) (ssDNA)
DNA: GCTTTTGATGTACCAATGCATCACCATCACCATCAGGAAATGGGTAAGATGCTTGTAG
binding signal (YbiB Arg123Glu): > 10 fold higher apparent KD than WT
binding signal (YbiB Arg92Glu): > 10 fold higher apparent KD than WT
